For experiment [1], the target named is GST-TOG1/2. The experiment is described as follows: pull-down.
Experiment [2] concerns the target TUBB3-D417H (recombinant α/β-tubulin heterodimer with human TUBB3 D417H) (Homo sapiens) (UniProt P68363). Briefly: TIRF microscopy single-filament polymerization assay.
For experiment [3], the target named is wild-type TUBB3 (recombinant α/β-tubulin heterodimer with human β-tubulin isotype III) (Homo sapiens) (UniProt P68363). The description is as above.

The Kd is the concentration at which binding is half-saturated. Substance “TUBB3-D417H (recombinant α/β-tubulin heterodimer with human TUBB3 D417H) (from UniProt P68363-1 1-437; Q13509-1 1-426) (complex)” returned a Kd in experiment [1] of 1200 nM. For the same substance, in experiment [2], the apparent association rate constant k+ of tubulin subunits at minus-ends stood at 1.4e+06 M⁻¹ s⁻¹ and the apparent dissociation rate constant k- of tubulin subunits at minus-ends came to 1.2 s⁻¹.
Regarding “wild-type TUBB3 (recombinant α/β-tubulin heterodimer with human β-tubulin isotype III) (from UniProt P68363-1 1-437; Q13509-1 1-426) (complex)”, the Kd in experiment [1] worked out at 400 nM. Moreover, in experiment [3], the apparent association rate constant k+ of tubulin subunits at plus-ends was found to be 1.7e+06 M⁻¹ s⁻¹ and the apparent dissociation rate constant k- of tubulin subunits at plus-ends turned out to be 1.1 s⁻¹.

Source of the values: publication PMC4832424.
